Laboratory results taken from FireProtDB (doi:10.1006/jmbi.1995.0599).

B1: Lysozyme C, P61626 (parent)
chain: MKALIVLGLVLLSVTVQGKVFERCELARTLKRLGMDGYRGISLANWMCLAKWESGYNTRATNYNAGDRSTDYGIFQINSRYWCNDGKTPGAVNACHLSCSALLQDNIADAVACAKRVVRDPQGIRAWVAWRNRCQNRDVRQYVQGCGV

Variants of: B1
Details: Homo sapiens, pH 2.7, Thermal, DSC, glycine 0.05 M, reversible: yes, structure 1LZ1, whole UniProt chain shown

Variant	ddG of mutation (higher = less stable) (64.9 °C) [kcal/mol]	heat capacity change of unfolding (64.9 °C) [kcal/mol/K]	Tm [°C]	change of melting temperature, mutant - wild type (higher = more stable) [°C]	heat capacity change of unfolding [kcal/mol/K]	unfolding enthalpy (calorimetric) [kcal/mol]	unfolding enthalpy (van 't Hoff) [kcal/mol]
I41V	0.36	1.39	63.8	-1.1	1.39	112	120
I74V	1.2	1.34	61.3	-3.6	1.34	114	117
I107V	0.48	1.91	63.5	-1.4	1.91	116	122
I124V	0.72	1.41	62.7	-2.2	1.41	109	114
I77V			61.5	-3.4	1.2	110	117
